According to patent publication US20150266960A1 (University of Texas, published 2015):
One block for each molecule: values may come before it.

B1: FcγRIIa-R131-GST (receptor, UniProt P12318 34-217, looked up)
chain: QAAAPPKAVLKLEPPWINVLQEDSVTLTCQGARSPESDSIQWFHNGNLIPTHTQPSYRFKANNNDSGEYTCQTGQTSLSDPVHLTVLSEWLVLQTPHLEFQEGETIMLRCHSWKDKPLVKVTFFQNGKSQKFSRLDPTFSIPQANHSHSGDYHCTGNIGYTLFSSKPVTITVQVPSMGSSSPMG
notes: R131 is an allele name counted on the mature protein; not shown: GST tag
B2: Mutant B (other)
Fc chain (hinge-CH2-CH3): DKTHTCPPCPAPELLGGPSVFLFPPKPKDTLMISRTPEVTCVVVDVSHEDPEVKFNWYVDGVEVHNAKTKPREEQYNSTYRVVSVLTVLHQDWLNGKEYKCKVSNKALPAPIEKTISKAKSGNTFRPEVHLLPPPSEELALNELVTLTCLARGFSPKDVLVRWLQGSQELPREKYLTWASRQEPSQGTTTFAVTSILRVAAEDWKKGDTFSCMVGHEALPLAFTQKTIDR
notes: Purified over Ni-NTA (His tag); also called Mutant B Fc domain; MutB
B3: Wild type IgA Fc domain (other)
chain: VPCPVPSTPPTPSPSTPPTPSPSCCHPRLSLHRPALEDLLLGSEANLTCTLTGLRDASGVTFTWTPSSGKSAVQGPPERDLCGCYSVSSVLPGCAEPWNHGKTFTCTAAYPESKTPLTATLSKSGNTFRPEVHLLPPPSEELALNELVTLTCLARGFSPKDVLVRWLQGSQELPREKYLTWASRQEPSQGTTTFAVTSILRVAAEDWKKGDTFSCMVGHEALPLAFTQKTIDR
notes: Template for the alanine scan; also called wild-type glycosylated IgA; IgA CH2 CH3

Columns and labels:
FcαRI-GST [1] = target: T1, FcαRI-GST (UniProt P24071 22-227, limits assumed); experiment: SPR, antibody amine coupled, dimeric FcαRI-GST flowed, 2:1 bivalent analyte fit
T1 construct: extracellular domain; Made in HEK293F cells from pMaz-IgH-FcαRI-GST (dimeric expression) and purified on glutathione Sepharose; also called soluble dimeric FcαRI-GST; CD89; not shown: GST tag
T1 sequence (P24071 22-227 limits assumed): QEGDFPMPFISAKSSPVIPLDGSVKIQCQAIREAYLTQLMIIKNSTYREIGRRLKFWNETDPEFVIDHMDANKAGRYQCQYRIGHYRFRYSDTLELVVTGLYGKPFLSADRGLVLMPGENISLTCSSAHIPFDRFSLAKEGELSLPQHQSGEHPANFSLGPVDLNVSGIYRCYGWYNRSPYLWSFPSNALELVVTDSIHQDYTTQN

Wild type IgA Fc domain = target: B3; experiment: ELISA: Fc domain coated at 4 µg/mL, FcγRIIa-R131-GST in 1:4 serial dilution, anti-GST HRP, A450
Description: (§1) ELISA plates (Qiagen) were coated with 4 μg/mL of each of the mutant Fc domains in 1×PBS (pH 7.4) overnight at 4° C. The next day the plates were blocked for 2 hours at room temperature with 2% milk in 1×PBS containing 0.05% Tween (PBST) and washed three times in PBST at pH 7.4. To the first well, 66 μL of 20 μg/mL of either FcγRI-GST, FcγRI-GST, FcγRIIa-R131-GST, FcγRIIb-GST, or FcγRIIIa-F158-GST dissolved in PBS with 2% milk (PBSM) was added followed by 1:4 serial dilution. After 1 h of incubation at room temperature, the plates were washed and 50 μL PBSM was added containing 1:5000 goat anti-GST HRP (GE Healthcare) for 1 hour. To develop the plates, the wells were washed 3× with PBST, 50 μL TMB substrate was added per well (Thermo Scientific), 50 μL of 1 M H₂SO₄ was added to neutralize, and the absorbance at 450 nm was recorded.

FcαRI-GST [2] = target: T1, FcαRI-GST; experiment: ELISA: Fc domain coated at 4 µg/mL, FcαRI-GST in 1:4 serial dilution, anti-GST HRP, A450
Description: as §1

FcγRI-GST = target: T2, FcγRI-GST (UniProt P12314 16-292, limits assumed); experiment: ELISA: Fc domain coated at 4 µg/mL, FcγRI-GST in 1:4 serial dilution, anti-GST HRP, A450
T2 construct: not shown: GST tag
T2 sequence (P12314 16-292 limits assumed): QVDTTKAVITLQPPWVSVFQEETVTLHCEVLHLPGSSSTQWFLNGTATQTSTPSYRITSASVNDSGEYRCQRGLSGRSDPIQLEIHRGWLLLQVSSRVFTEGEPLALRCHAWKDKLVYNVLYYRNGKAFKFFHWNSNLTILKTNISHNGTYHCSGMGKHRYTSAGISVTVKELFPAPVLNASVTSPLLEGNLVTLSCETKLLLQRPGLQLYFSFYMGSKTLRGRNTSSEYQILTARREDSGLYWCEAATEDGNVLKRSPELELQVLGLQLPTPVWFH
Description: as §1

Kd (FcαRI-GST [1]): 500 nM
Molecule: trastuzumab IgA (antibody)

Molecule: B1
binding result (Wild type IgA Fc domain): no binding

Molecule: B2
binding result (FcαRI-GST [2]): no binding

Molecule: B3
binding result (FcγRI-GST): no binding
